Measured values from article PMC4693281.

B1: zona pellucida glycoprotein ZP3: ZP3(32–178)N124D (protein)
parent chain: MGPCSRLFVCFLLWGSTELCSPQPFWDDETERFRPSKPPAVMVECQEAQLVVTVDKDLFGTGKLIRPADLTLGPDNCEPLASADTDGVVRFAVGLHECGNILQVTDNALVYSTFLLHNPRPAGNLSILRTNRAEVPIECHYPRQGNVSSWAIQPTWVPFRTTVFSEEKLVFSLRLMEENWSAEKMTPTFQLGDRAHLQAQVHTGSHVPLRLFVDHCVASLTPDWSTSPYHTIVDFHGCLVDGLTDASSAFKAPRPRPEILQFTVDVFRFANDSRNMIYITCHLKVTPVDRVPDQLNKACSFSKSSNRWSPVEGPTDICRCCSKGRCGISGRSMRLSHREGRPVPRSRRHVTEEADVTVGPLIFLRKMNDRGVEGPTSSPPLVMLGLGLATVMTLTLAAIVLGLTGRLRAASHPVCPVSASQ
B2: zona pellucida glycoprotein ZP3: ZP3(32–178)N146D (protein)
parent chain: B1 parent chain
B3: zona pellucida glycoprotein ZP3: ZP3(32–178)N124,146D (protein)
parent chain: B1 parent chain

Test: competitive inhibition, sperm binding to ZP-coated wells
Details: glycan lost; control: ZP3(32–178)/ZP4

Question: For B1, which “other: inhibition of sperm-ZP binding” value is on record?
Answer: no change

Question: With B2 as the protein, how does the “other: inhibition of sperm-ZP binding” value read?
Answer: decreases

Question: For B3, which “other: inhibition of sperm-ZP binding” value is on record?
Answer: decreases
